{"source": "paper PMC4661009", "about": "“Synthesis of α,β-unsaturated esters via a chemo-enzymatic chain elongation approach by combining carboxylic acid reduction and Wittig reaction” (Beilstein Journal of Organic Chemistry, 2015)", "substrate": "O=C(O)c1ccccc1", "assay": "steady-state kinetics of carboxylic acid reduction", "type": "biochemical, Mycolicibacterium neoaurum", "conditions": "His-tagged CAR, holo form after PPTase/CoA treatment; ATP, NADPH, Mg2+ as cofactors; assay pH and temperature for Km not in main text", "data": [{"protein": "Mycobacterium CAR (Mycolicibacterium neoaurum VKM Ac-1815D) (protein, full-length gene in pET30b(+) (NdeI/XhoI), His-tagged, E. coli BL21(DE3), tag kept; monomer, theoretical 125 kDa; holo form made with Nocardia PPTase (ABI83656.1) and CoA) MFAENLDDQQRLADLYATDPEFAAAAPDPAIADAVAAPEMRLPEIIRTVLTGYAERPALGSRAVQLVTDEATGRTRAELLGHFETITYGQLWDRVRAVTNAWSDTVRPGDRVAILGFGSVDFTVIDIALTQLGAVSVPLQTSATAAALAPIVAETEPALIASDVNHLDDAVTLALESGVATVVVFDQNPAVDDDREAIAAATARLDGQTLATLDEVIAAGAERPDVAIPAQEGDPLSLLIYTSGSTGAPKGAMYPQGKVADIWRPAINSHWDARQGHVPAIVLSFMPMSHVMGRGILYASLASGGVVNFAARADLSTLLEDLALTRPTQLNFVPRVWDMLFQDYQSRAAHGGSEADILADMRTNLLGGRYVSALTGSAPISPELKAWVERLLDLHLVEGYGSTEAGAVFVDGQISRPPVLEYKLVDVPELGYHSTDVPHPRGELLIRSEQLFPGYYKRPEVTASVFDEDGFYRTGDIVAELGPDQVAYIDRRNNVLKLSQGEFVTVSKLEAVFNTAPLVHQIYIYGNSARPYLLAVVVPTDPAATKAEIADALKAAARKADLQSYELPRDFLVETQEFTTENGLLTGIKKLAWPKLKERYGAELEQLYTDLADGQAGELQALRATGADAPVLETVGRAAVALLGAASSDIAPDVHFTDLGGDSLSALTFGNLLADIFDVEVPVSVIVSPTADLASIAAHIETQRSGSGLRPSFASVHGKDATVARAADLTLDKFIDAETLAAAGDLAGPATNVRTVLLTGATGFLGRYLALEWLERMNLVDGKVIALVRARSDAEARARLDATFDTGDPKLVAHYRELADKHLEVLAGDKGEHDLGLDRQTWQRLADTVDLIVDPAALVNHVLPYNELFGPNALGTAELIRVALTTRIKPFVYVSTIGVGAGIEPGRFVEDADIREISATRVLDDSYANGYGASKWAGEVLLREAHEQFGLPVSVFRCDMILADTSYAGQLNLPDMFTRMMLSLVATGIAPKSFNQLDAQGNRQRSHYDGLPVEFIAEAISTLGADVTDGFETYHVMNPHDDGLGLDEFVDWLVDAGHPIRRIDDYQAWFEQFGATLRTLPDRQRQASLLPLLHNYTTPGQPVNGAMAPTDVFRTAVQEAKIGPDKDIPHVSRDVIVKYVTDLQLLGLL", "values": [{"measurement": "Km", "result": "1750 ± 160", "unit": "µM"}]}]}
